Results as given in patent US5559094A (Eli Lilly and Company, priority 1994, dated 1996).

Columns and labels:
[1] = from NMR / x-ray crystallography literature; cited from earlier work
[2] = Near- and far-UV circular dichroism; assay type: physicochemical; conditions: mean residue ellipticity, variation of 3%
Method: Protein stock solutions were prepared by dissolving a known mass of protein in either 20 mM Tris or 50 mM sodium phosphate and 50 mM sodium chloride, pH 7.8, followed by zinc oxide addition to a final concentration of 0.5 mol Zn per mol of protein monomer. The pH of the solution was readjusted to pH 7.8 as needed. The protein stock concentrations were determined by UV absorbance using an AVIV model 14DS double-beam spectrophotometer. […] All circular dichroism measurements were obtained using an AVIV Model 62DS spectrometer (Lakewood, N.J.) with results reported as mean residue ellipticity (MRE) having units of deg.cm^2.dmol^-1.
All samples were measured by far-UV CD at 23° C. using a 0.01 cm CD cell. The signal at 224 nm was recorded as a function of either m-cresol or KSCN concentration.
To further explore secondary structure, the far-UV CD spectra were collected from 250 nm to 200 nm using a 0.01 cm cuvette. To gain insight into the environment of the aromatic and disulfide amino acids the near-UV CD spectra were collected from 350 to 250 nm using a 0.1 cm cell.

[3] = α-Helical analysis (CONTIN analysis from the circular dichroism spectra); assay type: physicochemical
Excerpt: ^1 Determined by CONTIN analysis from the circular dichroism spectra.

[4] = Equilibrium ultracentrifugation (aggregation state); assay type: physicochemical; conditions: 0.5 mol of Zn per mol of protein; 20 mM Tris pH 7.8; protein 1.5 to 5 mg/ml
Method: Equilibrium ultracentrifugation data was collected at 22° C. at equally spaced radial intervals using a Beckman Model XLA analytical ultracentrifuge Fullterton, Calif. Standard 30 mm and 12 mm centerpieces along with custom-made 3 mm centerpieces all made from charcoal-filled epon were used. Raw data from the chart recorder was converted to concentration versus radius using the internal calibration factors of the scanner. The weight average molecular weight was calculated according to the equation:
MW=RT/(1-Vp)ω^2.1r.1/C.dC/dr
where R is the gas constant, T is the temperature, ω is the rotor speed, r is the radius, C is the concentration, .rho. is the solvent density, and assuming ideal solutions. […] Least squares smoothing methods were used to calculate C and dC/dr.

[5] = injection of an acidic solution; cited from earlier work

Substance | % Helix Theoretical [1] [%] | Circular Dichroism, Wavelength 224 nm [2] [deg.cm^2.dmol^-1] | Circular Dichroism, Wavelength 251 nm [2] [deg.cm^2.dmol^-1] | Circular Dichroism, Wavelength 276 nm [2] [deg.cm^2.dmol^-1] | % Helix Measured [3] [%] | aggregation state (weight average molecular weight) [4] | reduction of insulin absorption rate after injection [5] [%]
Zn + Human Insulin: human insulin sample with Zn [reference compound] | 47 | -10892 | -121 | -305 |  |  | 
Zn + asp^B1 gln^B13 Insulin: asp^B1 gln^B13 insulin sample with Zn |  | -14555 | -426 | -291 | 65 |  | 
Zn + m-cresol + Human Insulin: human insulin sample with Zn and m-cresol [reference compound] |  | -13488 | -425 | -335 |  |  | 
Zn + m-cresol + asp^B1 gln^B13 Insulin: asp^B1 gln^B13 insulin sample with Zn and m-cresol |  | -14092 | -431 | -384 | 64 |  | 
Zn-Asp^B1 insulin: Asp^B1 insulin containing 0.5 mol of Zn per mol of protein |  |  |  |  |  | hexamer | 
gln^B13 analog: literature insulin analog with gln at B13 that forms stable hexamers in the absence of Zn |  |  |  |  |  |  | 25
